Laboratory results as given in the supplement of paper PMC12042874.
± gives the uncertainty stated by the source.

Assay: amyloid nucleation score (Sup35N fusion, yeast selection) (log enrichment); library NNK2; higher = more nucleation; inactive = no reads after selection
Procedure, shortened: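 Yeast lacking psi expressed peptides of 20 random codons fused to Sup35N, received 100 μM copper sulfate for 24 hours, and were then grown for 7 days at 30°C on medium lacking adenine and uracil. Illumina sequencing of input and output plasmid inserts provided the reads. Nucleation scores are DiMSum log enrichments of output over input, centred on the mode of non-aggregating sequences. Any sequence with under 100 input reads was excluded.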

| Substance | amyloid nucleation score |
| --- | --- |
| IVQKFCVASCGLEHYVF | 6.07 ± 0.073 |
| PFCPFSEAVWMSTITLQHEG | -0.054 ± 0.32 |
| FCHRRRYIFIWNIRCLSYLN | inactive |
| LCLTLVRPPRSCMLATL | inactive |
| TRRARSDSDLMCRDRVSVDN | -0.249 ± 0.35 |
| YLDGYSSFTSFEKAMARRCG | 0.305 ± 0.74 |
| RLLFSDCFLVFLPMGCFAFF | 3.69 ± 0.07 |
| TMRYMVQMLRFEQSGLGQWV | 4.19 ± 0.076 |
| WEDAVDSSVRFC | -0.211 ± 0.61 |
| GDYYFV | -1.19 ± 1 |
| WFHVAAYAFRGTCYHLGGVL | 4.39 ± 0.096 |
| KNIPFRMYWS | 2.6 ± 0.075 |
| SQRNTLEFVLAGYKTTLVIS | -0.549 ± 0.27 |
| SILSRCIRQVLFREPDVWRS | -0.32 ± 0.48 |
| LNRFGSSNSLITKFC | -1.58 ± 1 |
| FNRVLVPRIKNTWILYCYFI | inactive |
| STPIAEV | 0.6 ± 0.29 |
| YISFSDEVFV | inactive |
| IGIMQMIYFVD | 5.79 ± 0.068 |
| PFVVNVAGLKMSVRV | 3.71 ± 0.07 |
| GITPRKDFFYYTLVDTCLVL | -0.198 ± 0.46 |
| SSRLALEVDKATKRVW | -0.474 ± 1.1 |
| CNNQRYVNNGITRNGRNDAG | -0.604 ± 0.76 |
| NLARYLLRKELARYFMSQ | -0.578 ± 0.41 |
| TTDLYEMLWTFWSINRNSKS | -0.071 ± 0.61 |

| Substance | amyloid nucleation score |
| --- | --- |
| FLPNFSNVLFSLHPASKSGE | -0.218 ± 0.48 |
| WTTRFSCITTFLRQCPYM | 0.148 ± 0.79 |
| NWIQRQVL | inactive |
| LFPSLMAVNVQRSDTGPSHG | 1.2 ± 0.45 |
| NREFCFFVSDVKIPYTPCVP | -0.609 ± 0.32 |
| KIINNSANGNIYVVNRVLTL | 8.174 ± 0.046 |
| GEQLLED | inactive |
| GWAIPFADIEHCHVLLRISV | 0.914 ± 0.46 |
| LLKGVASVQSTDAVRHMWSS | 0.252 ± 0.8 |
| WLCVRNVLMCQW | 7.037 ± 0.042 |
| SRLAY | inactive |
| WVHVNSCELDSPGKAWGDTG | 1.11 ± 0.32 |
| TFCSPR | 0.49 ± 0.5 |
| IVFYMSS | 1.53 ± 0.095 |
| ANPTADP | 0.578 ± 0.29 |
| ISACFKMGNRGYVICAMSRV | -0.306 ± 0.45 |
| LIERDNTWRATSRCITIESG | 1.17 ± 0.45 |
| NTMTSHMFENNRSIVTYLDV | -0.718 ± 0.76 |
| RPWHDLLNLHLYGRFMYTIG | 0.415 ± 0.37 |
| TSGFRKHNVQRRLECTPGDW | 1.14 ± 0.31 |
| IMRMNVMCGVRYPYALFALL | inactive |
| LAPLNSWKTY | -0.045 ± 0.56 |
| NLVTFVWKRYLINIISVTKD | -1.51 ± 1.1 |
| LFKEDRDRCSC | 0.99 ± 0.49 |
| MWMEVTRPPTGHFRIRGGQA | inactive |

| Substance | amyloid nucleation score |
| --- | --- |
| QLGRVSHRVTDRIFWKAYPA | 0.353 ± 0.35 |
| YAVLSLKAWCLSG | 4.61 ± 0.054 |
| MHSFHTICLLLMWRESRIAV | 0.45 ± 0.39 |
| VWWSEVTAVSNCQRVSYARP | 2.94 ± 0.075 |
| IFSWTLEV | 0.249 ± 0.64 |
| RIVRQSVYQELFYFGQRGSL | 4.19 ± 0.072 |
| HYVVFVF | 6.37 ± 0.084 |
| SGFSVTNCGN | -0.155 ± 0.26 |
| IQKLRVRHDMISYTSEMSVN | -0.218 ± 0.55 |
| LIFRFLGLVMLFQ | inactive |
| GYIGGVSWNISVVVCSS | 2.71 ± 0.11 |
| CVVKDSSTVFM | -1.9 ± 1 |
| RLLLCLRLSY | 2.7 ± 0.12 |
| NQFNVFFASVVLVVGCICNH | 7.622 ± 0.029 |
| VVSKVLNKYF | 0.189 ± 0.65 |
| DSAGASFNSCCGAE | 0.122 ± 1.1 |
| TLPWFGSFLRGVFKVPLIRG | 2.27 ± 0.1 |
| LRRVSGRLDSIWSWCVRCNE | -1.02 ± 1.1 |
| PNLIGLLVGLRVNSWSVAIT | 0.632 ± 0.21 |
| TWRVP | 0.884 ± 0.55 |
| YCFRS | -0.542 ± 0.64 |
| GCYRLNSLYATIQLRLLSWW | -0.46 ± 1.1 |
| VKVGSSTRRGSGVPSGPKLG | 1.04 ± 0.52 |
| YANMVRERINWI | 0.198 ± 0.28 |
| MIVVCVRLYQGRYGRMPDYE | -0.16 ± 0.37 |

| Substance | amyloid nucleation score |
| --- | --- |
| PYLGRFFSCLYTEWDTP | inactive |
| GLVNSTPRKRKLFKGDAVHS | 0.321 ± 0.48 |
| CTFLRNIGFLYWYVSPLNLG | inactive |
| MLPFNRSVPNAAFFIGMIGS | 2.16 ± 0.076 |
| FFDNPMHKTYSGSAARARLS | -0.375 ± 0.24 |
| NTLSR | 5.654 ± 0.05 |
| STNIRSLMLLFCNNIEQASV | 7.816 ± 0.038 |
| YDCLSWRLKEERQATFGFRG | 0.505 ± 0.51 |
| SSYRINPRKPLR | 0.028 ± 0.63 |
| LHHYAFFSHM | inactive |
| GRRLKGYVTSGIEDWLKGRM | 0.908 ± 0.35 |
| VPLEYSRVI | 2.15 ± 0.15 |
| SIYVSALDGMYSGGRDLWKR | 0.601 ± 0.48 |
| SQMYGLAYVCRQ | 6.28 ± 0.076 |
| TMGTSSLVSAQLICRGTLAK | 0.172 ± 0.62 |
| DREFLGDCWVLAELSKTRLI | 3.24 ± 0.093 |
| SWLFRYYVERVNDVRG | 0.191 ± 0.65 |
| FFLGDRIWL | inactive |
| VLFSHQDEGLWHIHVHF | 3.28 ± 0.052 |
| NYKYINVHGGYVSCLKREEE | inactive |
| RLGFISRSNLVANDVGKIFL | inactive |
| VANNTGAKSYVFMARNAMCF | -0.602 ± 0.49 |
| NMPHPHEFIRSPCICLRHVV | inactive |
| SQHMLEL | -0.633 ± 1.1 |
| KQMFRQFLCGNVYNWRYMRA | 0.298 ± 0.56 |

| Substance | amyloid nucleation score |
| --- | --- |
| VPRFVCTHVDLIFGGNGCTF | 4.91 ± 0.075 |
| VEFNNAFNNCSLLFSDPRSS | 3.34 ± 0.12 |
| EDRNSAFAWSSH | 3.54 ± 0.14 |
| MAGVTPLELLCGPNQFALMR | 1.95 ± 0.48 |
| LNNIFDLQYWQLWMSRQVKS | 0.809 ± 0.14 |
| YMTSD | -0.464 ± 0.41 |
| NVGTEFVWIPYFYSAS | 0.716 ± 0.66 |
| NGVIRVSWSTR | 6.48 ± 0.087 |
| GGSKLVLLFE | -0.81 ± 0.76 |
| VGDCITAWRSWNNCFVGYGP | 3.2 ± 0.053 |
| KIERC | -0.077 ± 0.63 |
| GTSIFHRKDGASTDMACQPF | 0.14 ± 0.63 |
| SIFSIFWYV | -0.744 ± 0.5 |
| GLSGKCLYFISVWYTKFLIS | inactive |
| RLLLLPTSLLYSKSWCYSLL | -0.622 ± 0.27 |
| FRNNKLYIRVYRSKWTE | -1.22 ± 1.1 |
| MQWETSGVLCWSKQFGGDWV | 0.864 ± 0.23 |
| GAMDLHQWASMMNMFPAMCV | 0.731 ± 0.47 |
| TFLWLT | 2.33 ± 0.09 |
| CFSCVFIMDCCRH | 7.954 ± 0.062 |
| SFVSTVFMGRVFMQHAISTR | -1.08 ± 0.55 |
| LSRESTCIFSMNKDVFS | 0.016 ± 1.1 |
| GCWYIDIWL | 1.73 ± 0.11 |
| RVMRLGTLEDNWGDHGLSSR | -0.583 ± 0.44 |
| AFTLQIHGFSVIVTASLQVS | -0.642 ± 1.1 |

| Substance | amyloid nucleation score |
| --- | --- |
| VGNIGPT | 0.338 ± 0.46 |
| QKRRDFVVHCIRELWFYEHD | inactive |
| ILLVSATHYSQLNKGRPNDL | 1.43 ± 0.35 |
| GGVYASKYLCGYIKLSLKAS | -0.154 ± 0.3 |
| SAYGVVSSWMR | -0.266 ± 0.55 |
| MAELLHKYGYKDAVRNIHPY | 0.641 ± 0.62 |
| LSASW | 1.44 ± 0.38 |
| SNYGCDQWWNITWFE | -0.791 ± 0.61 |
| HNYGNPWE | 3 ± 0.12 |
| AYPVES | 1.19 ± 0.23 |
| CLEMFLKLCSLECARMKLPR | 5.673 ± 0.04 |
| MDPYYRKICSCDVGVNYRFL | inactive |
| VCWGFSFATHGLWDMAF | -0.32 ± 0.26 |
| TFVRVPFWFRKN | 9.788 ± 0.071 |
| VQYCFFCAHRDSFGFKHCF | inactive |
| SARRRINGNPCEEMNQRLAV | 1.08 ± 0.53 |
| PLVTWHFS | 0.413 ± 0.31 |
| FYLGVALVHNKAWLFLWKDD | inactive |
| LRWDGEDWRWDALWVTSSVC | 0.512 ± 0.2 |
| CVHLLSVSGWDFQYYFQAFN | 1.17 ± 0.13 |
| TDECWIGYFNSSAI | -0.053 ± 1 |
| MQIKFKS | -0.38 ± 0.56 |
| KWVMRNIWDTYSKVGLQSST | -0.206 ± 0.39 |
| LTSNPVPSNLT | 3.35 ± 0.076 |
| NDYEPRCMFGRIVCSNGPEM | 1.14 ± 0.42 |

| Substance | amyloid nucleation score |
| --- | --- |
| PSYMFITVLYLQTEFGFDDT | 3.82 ± 0.074 |
| FRSGCQFLWHERLNNNVTNA | 1.54 ± 0.093 |
| RGTMVWTDCFMCLGLYKKVY | -0.896 ± 0.56 |
| RLCWLEGVIVYRIFGGKLGV | -1.33 ± 0.44 |
| FLITCQLESTLYQW | -0.334 ± 0.64 |
| FDQLPRVFNYRLAILWAVYR | -0.627 ± 0.79 |
| VRVEERSVTAYRFMTKPAWW | 4.88 ± 0.096 |
| VYSPFLICI | 0.174 ± 1 |
| VKSTSFPTWMISMIGQRTAH | -0.711 ± 1.1 |
| EVYYTSMERCGG | 1.36 ± 0.22 |
| KASLGLFYTWVQLSLHISCG | -0.488 ± 1 |
| QSKYVSDPSPPETR | 1.48 ± 0.32 |
| WRAIALLEARTGSRQ | 1.08 ± 0.14 |
| NGGDRVLSFDIIIAGSLVAK | -0.354 ± 0.39 |
| VRCRDENHVVELSGGEVPDS | 0.066 ± 1 |
| RGSSALDE | 0.382 ± 0.35 |
| REVTNLYVVGGSDCTLIGGM | 3.75 ± 0.097 |
| VLVEGVQCYSENRTNT | 1.49 ± 0.41 |
| MVCKLTFRRRCPMNRSRHQV | 0.469 ± 0.43 |
| DCSDLVSLLCNVRHAHGRWL | 4.42 ± 0.067 |
| FDSFPSS | 0.529 ± 0.2 |
| TFLYREVPLRRYR | 0.135 ± 0.63 |
| VDRMVDIMCTTKKMIHAF | 1.45 ± 0.4 |
